Common to all, as to assay: ELISA, scFv, secondary screening
One test addresses T1, human IGFBP2 (human, UniProt P18065 37-325, limits assumed).
T1 construct: Bought protein
T1 sequence (looked up): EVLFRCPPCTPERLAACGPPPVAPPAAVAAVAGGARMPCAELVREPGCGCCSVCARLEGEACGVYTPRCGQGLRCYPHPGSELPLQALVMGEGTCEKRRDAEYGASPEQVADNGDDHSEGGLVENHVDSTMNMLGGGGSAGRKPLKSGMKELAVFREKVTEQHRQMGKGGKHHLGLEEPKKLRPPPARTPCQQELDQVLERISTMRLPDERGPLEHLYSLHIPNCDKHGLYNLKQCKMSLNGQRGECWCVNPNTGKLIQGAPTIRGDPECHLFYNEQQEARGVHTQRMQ
The method, then:
(§1) At the end of the discovery process, each selection output was screened for antigen-specific antibodies and the binding characteristics of monoclonal antibody clones was analysed. For this purpose, 3072 single colonies were used for scFv antibody production. […] 192 of those ELISA positive clones were selected for a secondary screening. For that purpose, a second batch of scFv were produced and tested on a broader panel of antigens: Streptavidin+biotinylated human IGFBP5, Streptavidin+biotinylated murine IGFBP5, Streptavidin, BSA, Human IGFBP1, Human IGFBP2, Human IGFBP3, Human IGFBP4, Human IGFBP5 and Human IGFBP6. […] Binding to human IGFBP1, human IGFBP2, human IGFBP3, human IGFBP4 and human IGFBP6 was not detected. […] The scFv DNA sequence was amplified by PCR and cloned into YUMAB's mammalian scFv-Fc expression vector, resulting in a genetic fusion of the scFv with a human IgG4 Fc. Bacterial clones with a correctly cloned scFv gene were used for isolation of transfection grade DNA. The DNA was used for the transient transfection of HEK cells which produced and secreted the antibody into the culture medium. The antibodies were purified by affinity chromatography (Protein A) and re-buffered in PBS. The protein concentration was determined by UV/VIS spectrometry and purity was checked by Coomassie staining. 13 of the 15 antibodies could be successfully produced in the scFv-Fc format.

Another test has as its target T2, human IGFBP4 (human, UniProt P22692 22-258).
T2 construct: Bought protein
T2 sequence (looked up): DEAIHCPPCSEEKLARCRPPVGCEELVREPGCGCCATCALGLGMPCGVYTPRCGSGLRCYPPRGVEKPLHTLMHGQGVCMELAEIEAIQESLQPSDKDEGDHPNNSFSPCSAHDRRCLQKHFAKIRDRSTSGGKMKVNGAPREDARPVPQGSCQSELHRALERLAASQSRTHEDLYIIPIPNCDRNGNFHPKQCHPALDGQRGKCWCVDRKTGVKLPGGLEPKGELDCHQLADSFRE
The method, then:
as §1

The next test has as its target T3, human IGFBP1 (human, UniProt P08833 26-259).
T3 construct: Bought protein
T3 sequence (looked up): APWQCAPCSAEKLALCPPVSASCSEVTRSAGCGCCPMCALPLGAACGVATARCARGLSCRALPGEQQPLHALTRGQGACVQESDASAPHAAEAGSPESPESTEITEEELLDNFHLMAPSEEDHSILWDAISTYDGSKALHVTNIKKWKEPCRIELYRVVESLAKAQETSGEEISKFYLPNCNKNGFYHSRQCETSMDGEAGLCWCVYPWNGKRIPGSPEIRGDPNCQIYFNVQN
The method, then:
as §1

The next test addresses T4, human IGFBP3 (human, UniProt P17936 28-291).
T4 construct: Bought protein
The method, then: as §1

The target in another test is T5, human IGFBP5 (human, UniProt P24593 21-272).
T5 construct: Bought protein; in BLI it was in solution; also called hIGFBP-5
The method, then: as §1

The next test addresses T6, mouse IGFBP5 (mouse, UniProt Q07079 20-271).
T6 construct: Bought protein; in solution in BLI; also called mIGFBP-5; murine IGFBP5
On the procedure:
as §1

The next test has as its target T7, human IGFBP6 (human, UniProt P24592 28-240, limits assumed).
T7 construct: Bought protein
T7 sequence (looked up): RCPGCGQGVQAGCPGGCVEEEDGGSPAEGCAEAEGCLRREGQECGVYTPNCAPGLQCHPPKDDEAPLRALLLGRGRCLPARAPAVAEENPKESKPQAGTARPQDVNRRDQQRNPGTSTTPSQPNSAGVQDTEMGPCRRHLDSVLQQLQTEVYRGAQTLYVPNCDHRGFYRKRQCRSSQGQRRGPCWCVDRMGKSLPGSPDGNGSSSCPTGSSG
The method, then:
as §1

The record followed here is patent publication US12715909 (ENTHERA S R L, dated 2026).

T4 sequence (P17936 28-291 limits assumed): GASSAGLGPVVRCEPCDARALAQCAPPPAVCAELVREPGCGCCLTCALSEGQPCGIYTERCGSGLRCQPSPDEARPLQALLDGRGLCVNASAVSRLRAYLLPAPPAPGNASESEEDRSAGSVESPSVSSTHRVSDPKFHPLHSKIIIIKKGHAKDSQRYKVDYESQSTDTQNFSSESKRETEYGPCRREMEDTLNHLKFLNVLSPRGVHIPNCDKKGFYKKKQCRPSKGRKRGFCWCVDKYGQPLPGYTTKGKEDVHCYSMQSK
T5 sequence (P24593 21-272 limits assumed): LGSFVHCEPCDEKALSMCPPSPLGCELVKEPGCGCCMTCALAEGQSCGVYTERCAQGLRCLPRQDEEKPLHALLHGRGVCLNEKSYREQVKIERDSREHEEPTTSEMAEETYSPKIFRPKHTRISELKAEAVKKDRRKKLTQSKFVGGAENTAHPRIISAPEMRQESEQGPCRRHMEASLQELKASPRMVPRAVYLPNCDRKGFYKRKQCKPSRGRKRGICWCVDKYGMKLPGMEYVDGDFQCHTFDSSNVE
T6 sequence (Q07079 20-271 limits assumed): as the sequence (P24593 21-272 limits assumed) above, with R87G, V90T, I116V, I157V, S159P, L183F, T245A counted along it

B1: D10 scFv (scFv, V domains shown)
VH: QVQLVQSGAEVKKPGASVKVSCKASGYTFTSYGISWVRQAPGQGLEWMGWISAYNGNTNYAQKLQGRVTMTTDTSTSTAYMELRSLRSDDTAVYYCARDRYLGWFDPWGQGTLVTVSS
VL: QSALTQPASVSGSPGQSITISCTGTSSDVGGYNYVSWYQQHPGKAPKLMIYEVSNRPSGVSNRFSGSKSGNTASLTISGLQAEDEADYYCSSYTSSSTPYVFGTGTKLTVL
notes: scFv as screened by ELISA
In the case of B1, the binding result in the test with human IGFBP2 is “no binding”; in the test with human IGFBP4, “no binding”; with human IGFBP1 it was “no binding”; with human IGFBP3, “no binding”; with human IGFBP5, “binds”; with mouse IGFBP5 it was “binds”. Also, the binding result with human IGFBP6 is listed as “no binding”.

B2: D12 scFv (scFv, V domains shown)
VH: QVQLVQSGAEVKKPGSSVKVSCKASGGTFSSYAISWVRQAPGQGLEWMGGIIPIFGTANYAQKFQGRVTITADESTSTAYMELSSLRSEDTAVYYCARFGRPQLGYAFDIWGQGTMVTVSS
VL: ETTLTQSPGTLSVSPGDRATLSCRASQSLSADYLAWYQQKPGQAPRLLIYGASTRATGIPARFSGSGSGTEFTLTVSSLQSEDFAVYYCQQNDNWPYTFGQGTKLEIK
notes: scFv as screened by ELISA
Turning to B2, the binding result in the test with human IGFBP2 is reported as “no binding”; in the test with human IGFBP4, “no binding”; with human IGFBP1, “no binding”; with human IGFBP3 it was “no binding”; in the test with human IGFBP5, “binds”; in the test with mouse IGFBP5, “binds”. Moreover, the binding result in the test with human IGFBP6 is reported as “no binding”.

B3: C12 scFv (scFv, V domains shown)
VH: QVQLVQSGAEVKKPGSSVKVSCKASGGTFSSYAISWVRQAPGQGLEWMGGIIPIFGTANYAQKFQGRVTITADESTSTAYMELSSLRSEDTAVYYCATLGRELSFDYWGQGTLVTVSS
VL: DIVMTQSPSSLSASVGDRVTITCRASQSISSYLNWYQQKPGKAPKLLIYAASSLQSGVPSRFSGSGSGTDFTLTISSLQPEDFATYYCQQSYSESWTFGQGTTVDIK
notes: scFv as screened by ELISA
Take B3: the binding result with human IGFBP2 is “no binding”; with human IGFBP4, “no binding”; with human IGFBP1 it was “no binding”; in the test with human IGFBP3 it was “no binding”; with human IGFBP5, “binds”; with mouse IGFBP5, “binds”. The binding result with human IGFBP6 is on record as “no binding”.

B4: E02 scFv (scFv, V domains shown)
VH: QMQLVQSGAEVKKPGSSVKVSCKASGGTFSSYAISWVRQAPGQGLEWMGGIIPIFGTANYAQKFQGRVTITADESTSTAYMELSSLRSEDTAVYYCATMSVAGPSISFDYWGQGTLVTVSS
VL: DIQMTQSPSSLSASVGDRVAIPCRASQSISSYLNWYQQKPGKAPKLLIYAASSLQRGVPSRFSGSGSGTDFTLTISSLQPEDFATYYCQETYSNLWTFGQGTKVEIK
notes: scFv as screened by ELISA
On to B4, for which the binding result with human IGFBP2 is “no binding”; with human IGFBP4, “no binding”; with human IGFBP1, “no binding”; with human IGFBP3 it was “no binding”; with human IGFBP5, “binds”; with mouse IGFBP5, “binds”. Moreover, the binding result in the test with human IGFBP6 is listed as “no binding”.

B5: C11 scFv (scFv, V domains shown)
VH: EVQLVESGGGVVQPGRSLRLSCAASGFTFSSYGMHWVRQAPGKGLEWVAVISYDGSNKYYADSVKGRFTISRDNSKNTLYLQMNSLRAEDTAVYYCARGDYSDTSGTDFFQHWGQGTQVTVSS
VL: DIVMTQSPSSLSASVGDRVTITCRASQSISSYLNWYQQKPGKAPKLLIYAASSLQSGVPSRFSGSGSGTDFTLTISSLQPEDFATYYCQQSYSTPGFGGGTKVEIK
notes: scFv as screened by ELISA
In the case of B5, the binding result is given as “no binding” with human IGFBP2; “no binding” with human IGFBP4; “no binding” with human IGFBP1; “no binding” with human IGFBP3; “binds” in the test with human IGFBP5; “binds” with mouse IGFBP5. For the same molecule, the binding result with human IGFBP6 is “no binding”.

B6: B09 scFv (scFv, V domains shown)
VH: QVQLVQSGAEVKKPGASVKVSCKASGYTFTSYGISWVRQAPGQGLEWMGWISAYNGNTNYAQKLQGRVTMTTDTSTSTAYMELRSLRSDDTAVYYCARDLAVGTHGDYWGQGTLVTVSS
VL: QSALTQPASVSGSPGQSITISCTGTSSDVGGYNYVSWYQQHPGKAPKLMIYEVSNRPSGVSNRFSGSKSGNTASLTISGLQAEDEADYYCSSYTSSSTLEVVFGGGTKLTVL
notes: scFv as screened by ELISA
On to B6, for which the binding result in the test with human IGFBP2, with human IGFBP4, with human IGFBP1, in the test with human IGFBP3 and in the test with human IGFBP6 was “no binding” in each case.

B7: E03 scFv (scFv, V domains shown)
VH: QVQLVQSGAEVKKPGSSVKVSCKASGGTFSSYAISWVRQAPGQGLEWMGGITPIFGTANYAQKFQGRVTITADESTSTAYMELSSLRSEDTAVYYCARAGILTGYYFDYWGQGTLVTVSS
VL: NFMLTQPHSVSESPGKTVTISCTRSSGSIASNYVQWYQQRPGSSPTTVIYEDNQRPSGVPDRFSGSIDSSSNSASLTISGLKTEDEADYYCQSYDSSNRPWVFGGGTKLTVL
notes: scFv as screened by ELISA
B7: the binding result with human IGFBP2 is “no binding”; with human IGFBP4, “no binding”; in the test with human IGFBP1 it was “no binding”; with human IGFBP3, “no binding”; with human IGFBP5, “binds”; with mouse IGFBP5 it was “binds”. For the same molecule, the binding result with human IGFBP6 is given as “no binding”.

B8: B11 scFv (scFv, V domains shown)
VH: QVQLVQSGAEVKKPGSSVKVSCKASGGTFSSYAISWVRQAPGQGLEWMGGIIPIFGTANYAQKFQGRVTITADKSTSTAYMELSSLRSEDTAVYYCARNVRLPGWFDPWGQGTLVTVSS
VL: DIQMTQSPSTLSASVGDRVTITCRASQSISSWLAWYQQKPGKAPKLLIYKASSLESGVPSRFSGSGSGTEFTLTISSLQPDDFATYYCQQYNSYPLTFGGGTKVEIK
On to B8, for which the binding result in the test with human IGFBP2 is “no binding”; with human IGFBP4, “no binding”; with human IGFBP1, “no binding”; with human IGFBP3 it was “no binding”; with human IGFBP5, “binds”; with mouse IGFBP5, “binds”. For the same molecule, the binding result in the test with human IGFBP6 is recorded as “no binding”.

B9: C02 scFv (scFv, V domains shown)
VH: QVQLVQSGAEVKKPGASVKVSCKASGYTFTSYGISWVRQAPGQGLEWMGWISAYNGNTNYAQKLQGRVTMTTDTSTSTAYMELRSLRSDDTAVYYCARGRGVIDYWGQGTLVTVSS
VL: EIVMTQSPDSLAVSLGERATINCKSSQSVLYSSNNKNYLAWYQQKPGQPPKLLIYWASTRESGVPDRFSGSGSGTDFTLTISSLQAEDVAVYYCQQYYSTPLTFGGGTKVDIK
notes: scFv as screened by ELISA
Turning to B9, the binding result was “no binding” with human IGFBP2; “no binding” with human IGFBP4; “no binding” with human IGFBP1; “no binding” with human IGFBP3; “binds” in the test with human IGFBP5; “binds” with mouse IGFBP5. In addition, the binding result with human IGFBP6 is recorded as “no binding”.

B10: F05 scFv (scFv, V domains shown)
VH: QVQLVQSGAEVKKPGASVKVSCKASGYTFTSYGISWVRQAPGQGLEWMGWISAYNGNTNYAQKLQGRVTMTTDTSTSTAYMELRSLRSDDTAVYYCARGRGSFDPWGQGTLVTVSS
VL: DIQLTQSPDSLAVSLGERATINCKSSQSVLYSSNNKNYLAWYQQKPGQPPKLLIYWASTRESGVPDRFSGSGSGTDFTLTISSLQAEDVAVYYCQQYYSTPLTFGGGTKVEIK
notes: scFv as screened by ELISA
As for B10, the binding result is recorded as “no binding” in the test with human IGFBP2; “no binding” with human IGFBP4; “no binding” in the test with human IGFBP1; “no binding” with human IGFBP3; “binds” with human IGFBP5; “binds” with mouse IGFBP5. In the test with human IGFBP6, the binding result is on record as “no binding”.
